From US20060216303A1

Target: bacterial fusion protein 11-2 (a hybrid of b-galactosidase and human mammary mucin) (human) (UniProt P15941)
Test: reciprocal of the competitor concentration giving 50% binding; competition radioimmunoassay on 11-2 fusion protein

| Ka | Binder |
| --- | --- |
| 2.68e+08 M⁻¹ | murine-human chimeric BrE-3 antibody (antibody, V domains shown) VH: EVKLEESGGGLVQPGGSMKLSCAASGFTFSDAWMDWVRQSPEKGLEWVAEIRNKANNHATYYDESVKGRFTISRDDSKSRVYLQMISLRAEDTGLYYCTGEFANWGQGTLVTVSA VL: DVVMTQTPLSLPVSLGDQASISCRSSQNLVHNNGNTYLYWFLQKSGQSPKLLIYRASIRFSGVPDRFSGSGSETDFTLKISRVEAEDLGVYFCFQGTHVPWTFGGGTKLEIK |
| 3.75e+08 M⁻¹ | murine BrE-3 monoclonal antibody (antibody, V domains shown) VH: EVKLEESGGGLVQPGGSMKLSCAASGFTFSDAWMDWVRQSPEKGLEWVAEIRNKANNHATYYDESVKGRFTISRDDSKSRVYLQMISLRAEDTGLYYCTGEFANWGQGTLVTVSA VL: DVVMTQTPLSLPVSLGDQASISCRSSQNLVHNNGNTYLYWFLQKSGQSPKLLIYRASIRFSGVPDRFSGSGSETDFTLKISRVEAEDLGVYFCFQGTHVPWTFGGGTKLEIK |
